B1: IQUB (parent)
chain: EADYEDDSKIAFLMQLQDIQYLTE

Variants of: B1
Assay: protein stability index of a GFP-peptide fusion (GPS, HEK-293T) (PSI 1-6); higher = more stable
Conditions: c terminus: a fixed tail appended
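Note: lentivirally expressed fusions sorted by FACS into six bins by GFP to DsRed ratio, PSI derived from sequencing read proportions per bin multiplied by bin number.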

Variant | protein stability index
EADGEDDSKIAFLMQLQDIQYLTE [Y4G] | 3.61
EADHEDDSKIAFLMQLQDIQYLTE [Y4H] | 3.35
EADIEDDSKIAFLMQLQDIQYLTE [Y4I] | 3.21
EADKEDDSKIAFLMQLQDIQYLTE [Y4K] | 3.96
EADLEDDSKIAFLMQLQDIQYLTE [Y4L] | 3.51
EADMEDDSKIAFLMQLQDIQYLTE [Y4M] | 3.07
EADNEDDSKIAFLMQLQDIQYLTE [Y4N] | 4.01
EADPEDDSKIAFLMQLQDIQYLTE [Y4P] | 4.15
EADQEDDSKIAFLMQLQDIQYLTE [Y4Q] | 3.78
EADREDDSKIAFLMQLQDIQYLTE [Y4R] | 3.42
EADSEDDSKIAFLMQLQDIQYLTE [Y4S] | 3.65
EADTEDDSKIAFLMQLQDIQYLTE [Y4T] | 3.66
EADVEDDSKIAFLMQLQDIQYLTE [Y4V] | 3.18
EADWEDDSKIAFLMQLQDIQYLTE [Y4W] | 3.42
EADYADDSKIAFLMQLQDIQYLTE [E5A] | 2.22
EADYCDDSKIAFLMQLQDIQYLTE [E5C] | 2.76
EADYDDDSKIAFLMQLQDIQYLTE [E5D] | 3.42
EADYFDDSKIAFLMQLQDIQYLTE [E5F] | 2.38
EADYGDDSKIAFLMQLQDIQYLTE [E5G] | 2.49
EADYHDDSKIAFLMQLQDIQYLTE [E5H] | 2.62
EADYIDDSKIAFLMQLQDIQYLTE [E5I] | 2.29
EADYKDDSKIAFLMQLQDIQYLTE [E5K] | 2.6
EADYLDDSKIAFLMQLQDIQYLTE [E5L] | 2.43
EADYMDDSKIAFLMQLQDIQYLTE [E5M] | 2.53

Variant | protein stability index
EADYNDDSKIAFLMQLQDIQYLTE [E5N] | 3.12
EADYPDDSKIAFLMQLQDIQYLTE [E5P] | 2.79
EADYQDDSKIAFLMQLQDIQYLTE [E5Q] | 2.62
EADYRDDSKIAFLMQLQDIQYLTE [E5R] | 2.63
EADYSDDSKIAFLMQLQDIQYLTE [E5S] | 2.24
EADYTDDSKIAFLMQLQDIQYLTE [E5T] | 3.5
EADYVDDSKIAFLMQLQDIQYLTE [E5V] | 2.38
EADYWDDSKIAFLMQLQDIQYLTE [E5W] | 2.29
EADYYDDSKIAFLMQLQDIQYLTE [E5Y] | 2.27
EADYEADSKIAFLMQLQDIQYLTE [D6A] | 2.21
EADYECDSKIAFLMQLQDIQYLTE [D6C] | 2.68
EADYEEDSKIAFLMQLQDIQYLTE [D6E] | 2.88
EADYEFDSKIAFLMQLQDIQYLTE [D6F] | 2.04
EADYEGDSKIAFLMQLQDIQYLTE [D6G] | 2.38
EADYEHDSKIAFLMQLQDIQYLTE [D6H] | 2.4
EADYEIDSKIAFLMQLQDIQYLTE [D6I] | 2.21
EADYEKDSKIAFLMQLQDIQYLTE [D6K] | 2.63
EADYELDSKIAFLMQLQDIQYLTE [D6L] | 1.53
EADYEMDSKIAFLMQLQDIQYLTE [D6M] | 1.75
EADYENDSKIAFLMQLQDIQYLTE [D6N] | 2.9
EADYEPDSKIAFLMQLQDIQYLTE [D6P] | 2.34
EADYEQDSKIAFLMQLQDIQYLTE [D6Q] | 2.57
EADYERDSKIAFLMQLQDIQYLTE [D6R] | 2.09
EADYESDSKIAFLMQLQDIQYLTE [D6S] | 2.7

Variant | protein stability index
EADYETDSKIAFLMQLQDIQYLTE [D6T] | 2.25
EADYEVDSKIAFLMQLQDIQYLTE [D6V] | 2.17
EADYEWDSKIAFLMQLQDIQYLTE [D6W] | 1.83
EADYEYDSKIAFLMQLQDIQYLTE [D6Y] | 1.86
EADYEDASKIAFLMQLQDIQYLTE [D7A] | 2.48
EADYEDCSKIAFLMQLQDIQYLTE [D7C] | 1.88
EADYEDESKIAFLMQLQDIQYLTE [D7E] | 3.14
EADYEDFSKIAFLMQLQDIQYLTE [D7F] | 1.17
EADYEDGSKIAFLMQLQDIQYLTE [D7G] | 2.78
EADYEDHSKIAFLMQLQDIQYLTE [D7H] | 2.98
EADYEDISKIAFLMQLQDIQYLTE [D7I] | 1.93
EADYEDKSKIAFLMQLQDIQYLTE [D7K] | 2.38
EADYEDLSKIAFLMQLQDIQYLTE [D7L] | 1.89
EADYEDMSKIAFLMQLQDIQYLTE [D7M] | 2.03
EADYEDNSKIAFLMQLQDIQYLTE [D7N] | 2.19
EADYEDPSKIAFLMQLQDIQYLTE [D7P] | 2.67
EADYEDQSKIAFLMQLQDIQYLTE [D7Q] | 3.2
EADYEDRSKIAFLMQLQDIQYLTE [D7R] | 2.87
EADYEDSSKIAFLMQLQDIQYLTE [D7S] | 2.47
EADYEDTSKIAFLMQLQDIQYLTE [D7T] | 2.19
EADYEDVSKIAFLMQLQDIQYLTE [D7V] | 1.96
EADYEDWSKIAFLMQLQDIQYLTE [D7W] | 2.33
EADYEDYSKIAFLMQLQDIQYLTE [D7Y] | 2.18
EADYEDDAKIAFLMQLQDIQYLTE [S8A] | 3.23

Variant | protein stability index
EADYEDDCKIAFLMQLQDIQYLTE [S8C] | 2.29
EADYEDDDKIAFLMQLQDIQYLTE [S8D] | 3.62
EADYEDDEKIAFLMQLQDIQYLTE [S8E] | 3.21
EADYEDDFKIAFLMQLQDIQYLTE [S8F] | 1.89
EADYEDDGKIAFLMQLQDIQYLTE [S8G] | 3.46
EADYEDDHKIAFLMQLQDIQYLTE [S8H] | 3.44
EADYEDDIKIAFLMQLQDIQYLTE [S8I] | 2.15
EADYEDDKKIAFLMQLQDIQYLTE [S8K] | 3.34
EADYEDDLKIAFLMQLQDIQYLTE [S8L] | 2.25
EADYEDDMKIAFLMQLQDIQYLTE [S8M] | 2.7
EADYEDDNKIAFLMQLQDIQYLTE [S8N] | 3.53
EADYEDDPKIAFLMQLQDIQYLTE [S8P] | 2.6
EADYEDDQKIAFLMQLQDIQYLTE [S8Q] | 3.32
EADYEDDRKIAFLMQLQDIQYLTE [S8R] | 2.88
EADYEDDTKIAFLMQLQDIQYLTE [S8T] | 3.07
EADYEDDVKIAFLMQLQDIQYLTE [S8V] | 2.6
EADYEDDWKIAFLMQLQDIQYLTE [S8W] | 2.29
EADYEDDYKIAFLMQLQDIQYLTE [S8Y] | 2.34
EADYEDDSAIAFLMQLQDIQYLTE [K9A] | 2.48
EADYEDDSCIAFLMQLQDIQYLTE [K9C] | 1.86
EADYEDDSDIAFLMQLQDIQYLTE [K9D] | 3.63
EADYEDDSEIAFLMQLQDIQYLTE [K9E] | 3.39

From the supplement of paper PMC10567573
